From patent US20170002081A1 (TRANSGENE S A, published 2017)

Assays:
[1] = target: T1, human CSF-1R, full length, on cells (human, UniProt P07333 20-972); test: displacement of 1.5 nM ^125I-H27K15 (competitor) on EL4-CSF-1R cells
T1 construct: also called cell-surface CSF-1R; B4-800-5 cells

[2] = target: T1, human CSF-1R, full length, on cells; test: displacement of 1.5 nM ^125I-H27K15 (competitor) on EL4-CSF-1R cells, Cheng-Prusoff
[3] = target: T2, vascular endothelial growth factor receptor (VEGFR)2-Fc-6×his (R&D Systems cat. 357-KD/CF) (human, UniProt P35968 20-764, limits assumed); test: ELISA, 300 ng coated receptor per well
T2 construct: extracellular domain; Bought; also called soluble VEGFR-2
T2 sequence (P35968 20-764 limits assumed): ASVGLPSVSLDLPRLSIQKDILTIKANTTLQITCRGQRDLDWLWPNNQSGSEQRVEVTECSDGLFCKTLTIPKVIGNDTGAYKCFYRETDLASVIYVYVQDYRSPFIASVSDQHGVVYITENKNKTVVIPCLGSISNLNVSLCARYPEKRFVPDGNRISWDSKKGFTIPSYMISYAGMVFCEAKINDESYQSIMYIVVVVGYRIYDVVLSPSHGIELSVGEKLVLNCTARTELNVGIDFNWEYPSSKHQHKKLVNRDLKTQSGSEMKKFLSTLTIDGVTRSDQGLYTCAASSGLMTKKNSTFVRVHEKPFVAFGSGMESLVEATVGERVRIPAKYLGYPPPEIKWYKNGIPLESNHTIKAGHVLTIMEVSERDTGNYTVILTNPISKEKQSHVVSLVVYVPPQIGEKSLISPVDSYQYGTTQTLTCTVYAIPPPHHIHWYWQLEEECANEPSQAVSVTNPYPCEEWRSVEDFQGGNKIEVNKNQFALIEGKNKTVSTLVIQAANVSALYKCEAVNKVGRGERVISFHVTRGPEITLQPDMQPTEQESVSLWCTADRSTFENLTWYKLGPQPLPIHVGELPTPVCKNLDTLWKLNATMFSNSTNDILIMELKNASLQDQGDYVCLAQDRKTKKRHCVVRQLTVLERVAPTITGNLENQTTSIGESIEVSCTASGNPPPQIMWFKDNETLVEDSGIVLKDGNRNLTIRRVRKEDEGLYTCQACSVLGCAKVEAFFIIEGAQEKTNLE
Experimental: (§1) 13382) was also incubated with wells coated with receptor-human Fc fusion proteins Flt-3-Fc-, PDGFRβ-Fc, VEGFR2-Fc, VEGFR1-Fc, while PDGFRα- and SCFR-coated wells were incubated with respectively anti-PDGF-Rα (mouse IgG1, R&Dsystems cat. MAB322) and anti-SCF-R goat IgG (R&DSystems cat. AF332). […] Following revelation with tetramethylbenzidine (Sigma, cat. T8665) (0.1 mg/ml in 0.05 M sodium acetate, 0.05 M citric acid, H₂O₂ 1/7000), absorbance was measured at 450 nm and corrected by subtraction of absorbance at 540 nm using a spectrophotometer (Berthold, Tristar LB941).

[4] = target: T3, PDGFRα ECD (R&D Systems cat. 322-PR/CF) (UniProt P16234 24-528, limits assumed); test: ELISA, 300 ng coated receptor per well
T3 construct: extracellular domain; Bought; also called soluble PDGFRα
T3 sequence (P16234 24-528 limits assumed): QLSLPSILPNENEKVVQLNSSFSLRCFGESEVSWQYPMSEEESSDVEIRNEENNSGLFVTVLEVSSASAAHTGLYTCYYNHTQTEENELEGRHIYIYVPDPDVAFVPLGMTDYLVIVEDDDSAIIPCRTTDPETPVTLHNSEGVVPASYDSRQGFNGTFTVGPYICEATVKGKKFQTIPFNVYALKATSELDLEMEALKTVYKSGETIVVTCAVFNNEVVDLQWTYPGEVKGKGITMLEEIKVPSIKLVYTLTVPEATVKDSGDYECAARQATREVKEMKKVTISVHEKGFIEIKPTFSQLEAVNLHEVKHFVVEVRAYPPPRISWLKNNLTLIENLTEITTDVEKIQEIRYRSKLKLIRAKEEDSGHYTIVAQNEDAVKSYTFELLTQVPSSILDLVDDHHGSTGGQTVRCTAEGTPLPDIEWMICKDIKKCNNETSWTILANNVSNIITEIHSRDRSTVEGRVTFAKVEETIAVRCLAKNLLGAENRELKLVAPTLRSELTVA
Experimental: as §1

[5] = target: T4, PDGFRβ-Fc-6×his (R&D Systems cat. 385-PR/CF) (human, UniProt P09619 33-532, limits assumed); test: ELISA, 300 ng coated receptor per well
T4 construct: extracellular domain; Bought; also called soluble PDGFRβ
T4 sequence (P09619 33-532 limits assumed): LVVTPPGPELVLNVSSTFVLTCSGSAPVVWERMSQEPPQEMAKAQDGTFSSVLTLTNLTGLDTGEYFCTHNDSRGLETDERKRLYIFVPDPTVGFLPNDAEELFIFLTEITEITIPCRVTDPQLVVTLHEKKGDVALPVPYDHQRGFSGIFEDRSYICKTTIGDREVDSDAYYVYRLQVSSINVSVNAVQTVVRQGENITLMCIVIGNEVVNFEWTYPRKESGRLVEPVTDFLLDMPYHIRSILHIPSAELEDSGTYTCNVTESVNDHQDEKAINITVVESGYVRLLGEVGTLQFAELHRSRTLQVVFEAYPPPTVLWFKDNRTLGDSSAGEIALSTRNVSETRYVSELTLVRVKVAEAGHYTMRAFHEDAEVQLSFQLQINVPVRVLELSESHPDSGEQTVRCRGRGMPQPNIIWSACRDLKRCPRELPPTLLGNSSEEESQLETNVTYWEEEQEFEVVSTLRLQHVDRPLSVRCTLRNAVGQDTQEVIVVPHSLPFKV
Experimental: as §1

[6] = target: T5, Flt-3-Fc-6×his (R&D Systems cat. 368-ST/CF) (human, UniProt P36888 27-543, limits assumed); test: ELISA, 300 ng coated receptor per well
T5 construct: extracellular domain; Bought; also called soluble Flt-3
Experimental: as §1

[7] = target: T6, human SCFR ECD (R&D Systems cat. 332-SR/CF) (human, UniProt P10721 26-524); test: ELISA, 300 ng coated receptor per well
T6 construct: extracellular domain; Bought; also called SCFR (c-kit)
Experimental: as §1

[8] = target: T7, VEGFR1-Fc-6×his (R&D Systems cat. 321-FL-050) (human, UniProt P17948 27-758, limits assumed); test: ELISA, 300 ng coated receptor per well
T7 construct: extracellular domain; Bought; also called soluble VEGFR-1
T7 sequence (P17948 27-758 limits assumed): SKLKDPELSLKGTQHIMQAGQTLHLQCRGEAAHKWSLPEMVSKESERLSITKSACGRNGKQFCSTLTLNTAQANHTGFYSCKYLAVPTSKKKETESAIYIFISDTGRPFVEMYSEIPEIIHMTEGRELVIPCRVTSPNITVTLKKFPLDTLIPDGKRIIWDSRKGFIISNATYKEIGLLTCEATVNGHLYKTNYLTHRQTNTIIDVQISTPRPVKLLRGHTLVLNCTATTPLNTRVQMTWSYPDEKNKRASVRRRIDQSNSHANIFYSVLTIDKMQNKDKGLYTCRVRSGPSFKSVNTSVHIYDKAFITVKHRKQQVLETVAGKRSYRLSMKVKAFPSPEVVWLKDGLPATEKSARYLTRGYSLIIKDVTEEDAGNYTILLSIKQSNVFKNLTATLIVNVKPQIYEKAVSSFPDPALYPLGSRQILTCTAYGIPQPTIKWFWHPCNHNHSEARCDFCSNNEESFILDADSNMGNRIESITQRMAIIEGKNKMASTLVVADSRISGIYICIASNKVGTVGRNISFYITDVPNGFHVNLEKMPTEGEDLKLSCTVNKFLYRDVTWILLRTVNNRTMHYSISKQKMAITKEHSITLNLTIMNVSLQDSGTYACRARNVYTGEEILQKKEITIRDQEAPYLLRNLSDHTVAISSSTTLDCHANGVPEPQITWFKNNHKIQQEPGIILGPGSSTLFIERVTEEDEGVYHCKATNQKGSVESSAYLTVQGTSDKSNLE
Experimental: as §1

pTG17983 = target: T8, pTG17983; test: ELISA: His-tagged construct captured from CHO supernatant on anti-His tag coated wells; biotinylated antibody; streptavidin-HRP
T8 construct: secreted by CHO cells; also called human D1-D2-D3 of CSF-1R, Histidine tag
T8 single secreted chain: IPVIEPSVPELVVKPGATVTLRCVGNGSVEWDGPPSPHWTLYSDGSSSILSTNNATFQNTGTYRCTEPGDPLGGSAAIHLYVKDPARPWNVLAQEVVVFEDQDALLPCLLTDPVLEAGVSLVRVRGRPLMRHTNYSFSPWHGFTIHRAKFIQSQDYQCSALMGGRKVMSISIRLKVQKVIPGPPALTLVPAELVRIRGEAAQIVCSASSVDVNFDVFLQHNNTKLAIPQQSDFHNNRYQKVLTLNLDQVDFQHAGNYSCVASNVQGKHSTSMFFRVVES
Experimental: (§2) In order to map the mAb binding sites on CSF-1R, truncated mutants of human CSF-1R and chimeras between human and murine D1-D3 CSF-1R fused to Histidine tags were constructed (see FIGS. 19 and 20 for details). These constructs were expressed as secreted proteins using CHO cells. Expression of constructs was checked by immunoblot analysis using an anti-His tag antibody for detection. All constructs were captured on ELISA plate by incubating CHO culture supernatant into wells coated with an Anti-His tag antibody. Antibodies were biotinylated using Biotin-NHS (Sigma ref B3295-10 MG). Biotinylated antibodies were added to each well and binding was detected with streptavidin-HRP.

pTG18036 = target: T9, pTG18036; test: as above
T9 construct: truncated mutant secreted by CHO cells; also called human D1 and D2 of CSF-1R, Histidine tag
T9 single secreted chain: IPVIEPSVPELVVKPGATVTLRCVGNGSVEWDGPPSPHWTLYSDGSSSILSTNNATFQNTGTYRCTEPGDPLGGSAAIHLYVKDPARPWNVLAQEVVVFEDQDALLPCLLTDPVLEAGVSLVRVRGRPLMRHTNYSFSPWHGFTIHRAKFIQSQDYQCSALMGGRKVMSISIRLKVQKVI
Experimental: as §2

[9] = target: T10, construct pTG18000 (human and murine D1 subdomains combined, Histidine tag) (Homo sapiens (Human), UniProt P07333 21-298); test: as above
T10 chain: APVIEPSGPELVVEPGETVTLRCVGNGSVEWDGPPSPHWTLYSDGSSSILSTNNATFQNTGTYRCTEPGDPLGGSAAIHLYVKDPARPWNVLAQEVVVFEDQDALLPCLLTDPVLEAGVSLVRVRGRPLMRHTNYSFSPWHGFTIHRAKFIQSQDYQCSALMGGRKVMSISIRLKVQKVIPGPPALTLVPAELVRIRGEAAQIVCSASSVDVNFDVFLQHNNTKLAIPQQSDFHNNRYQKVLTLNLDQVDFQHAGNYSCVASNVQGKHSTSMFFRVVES
Experimental: as §2

[10] = target: T11, CSF-1R20-512-Fc (R&D Systems cat. 329-MR) (human, UniProt P07333 20-512); test: ELISA: coated human CSF1 1-444 or PBS; Fc-D1-D5 human CSF-1R 0.125 µg/mL; anti-human IgG-Fc-HRP
T11 construct: Bought; also called CSF-1R1-512:Fc; soluble human CSF-1R; not shown: Fc region of a human IgG1

EGFR:Fc = target: T12, EGFR:Fc (human, UniProt P00533 25-645); test: Western blot, native conditions, 100 ng soluble receptor
T12 construct: also called soluble form of the EGFR fused to human IgG1 Fc (R&D Systems); Soluble EGFR; not shown: human IgG1 Fc
Excerpt: A soluble form of the EGFR fused to human IgG₁ Fc (R&D Systems) was used as a negative control.

B1: H19K12 (antibody, V domains shown)
VH: EVQLVESGGGLVQPGGSLKLSCAASGFTFSDAWMDWVRQSPEMGLEWVAEIRSKANNHATFYAESVKGRFTISRDDSKSSVYLQMNSLRAEDTGIYYCTRVKVGFDNWGQGTTLTVSS
VL: DIQMTQSPSSLSASVGDRVTITCRASENIYSNLAWYQQKDGKSPQLLVHAATNLADGVPSRFSGSGSGTQYSLTISSLQPEDFGSYYCQHFWGTPRTFGGGTKLEIKR
notes: Humanized human IgG1/kappa; also called hCXIIG6 variant H19K12
With B1 the IC50 [1] was 1.28 nM, the Ki [2] was 0.754 nM and the binding result [3] was “no binding (tested: 500 ng/ml)”. B1: no binding (tested: 500 ng/ml) [4]; no binding (tested: 500 ng/ml) [5]; no binding (tested: 500 ng/ml) [6]. B1: no binding (tested: 500 ng/ml) [7]; no binding (tested: 500 ng/ml) [8].

B2: Chimeric CXIIG6 IgG1 (antibody)
heavy: not shown
light: DIQMTQSPASLSVSVGETVTITCRASENIYSNLAWYQQKQGKSPQLLVHAATNLADGVPSRFSGSGSGTQYSLKINSLQSEDFGSYYCQHFWGTPRTFGGGTKLEIKRTVAAPSVFIFPPSDEQLKSGTASVVCLLNNFYPREAKVQWKVDNALQSGNSQESVTEQDSKDSTYSLSSTLTLSKADYEKHKVYACEVTHQGLSSPVTKSFNRGEC
In the case of B2, the IC50 [1] is reported as 1.48 nM, the Ki [2] is reported as 0.874 nM and the binding result (pTG17983) is reported as “binds”. B2: binds (pTG18036); no binding [9].

B3: human CSF1 1-444 (Geneart) (ligand)
chain: EEVSEYCSHMIGSGHLQSLQRLIDSQMETSCQITFEFVDQEQLKDPVCYLKKAFLLVQDIMEDTMRFRDNTPNAIAIVQLQELSLRLKSCFTKDYEEHDKACVRTFYETPLQLLEKVKNVFNETKNLLDKDWNIFSKNCNNSFAECSSQDVVTKPDCNCLYPKAIPSSDPASVSPHQPLAPSMAPVAGLTWEDSEGTEGSSLLPGEQPLHTVDPGSAKQAPPRSTCQSFEPPETPVVKDSTIGGSPQPRPSVGAFNPGMEDILDSAMGTNWVPEEASGEASEIPVPQGTELSPSRPGGGSMQTEPARPSNFLSASSPLPASAKGQQPADVTGTALPRVGPVRPTGQDWNHTPQKTDHPSALLRDPPEPGSPRISSLRPQGLSNPSTLSAQPQLSRSHSSGSVLPLGELEGRR
modifications: biotinylated with Biotin-NHS in the assay of
notes: also called biotinylated CSF-1
B3: binds [10].

B4: mAb CXIIG6 (antibody, mouse IgG2a, kappa)
heavy: EVKLEESGGGLVQPGGSMKLSCAASGFTFSDAWMDWVRQSPEMGLEWVAEIRSKANNHATFYAESVKGRFTISRDDSKSSVYLQMNSLRPEDTGIYYCTRVKVGFDNWGQGTTLTVSSAKTTAPSVYPLAPVCGDTTGSSVTLGCLVKGYFPEPVTLTWNSGSLSSGVHTFPAVLQSDLYTLSSSVTVTSSTWPSQSITCNVAHPASSTKVDKKIEPRGPTIKPCPPCKCPAPNLLGGPSVFIFPPKIKDVLMISLSPIVTCVVVDVSEDDPDVQISWFVNNVEVHTAQTQTHREDYNSTLRVVSALPIQHQDWMSGKEFKCKVNNKDLPAPIERTISKPKGSVRAPQVYVLPPPEEEMTKKQVTLTCMVTDFMPEDIYVEWTNNGKTELNYKNTEPVLDSDGSYFMYSKLRVEKKNWVERNSYSCSVVHEGLHNHHTTKSFSRTPGK
light: DIQMTQSPASLSVSVGETVTITCRASENIYSNLAWYQQKQGKSPQLLVHAATNLADGVPSRFSGSGSGTQYSLKINSLQSEDFGSYYCQHFWGTPRTFGGGTKLEIKRADAAPTVSIFPPSSEQLTSGGASVVCFLNNFYPKDINVKWKIDGSERQNGVLNSWTDQDSKDSTYSMSSTLTLTKDEYERHNSYTCEATHKTSTSPIVKSFNRNEC
notes: Mouse IgG2a; Used as hybridoma supernatant or as purified recombinant antibody; also called CXIIG6 hybridoma supernatant; CXIIG6 SN
B4: no binding (EGFR:Fc).
